Target: Taxol-stabilized microtubules (UniProt P02550 1-451)
Experiment: co-sedimentation; equilibrium binding of 100 nM GST–CPn0572^595-755 with increasing amounts of Taxol-stabilized MTs; apparent Kd
Conditions: both partners purified

Sequence of Taxol-stabilized microtubules (P02550 whole entry, chain 1 of 2): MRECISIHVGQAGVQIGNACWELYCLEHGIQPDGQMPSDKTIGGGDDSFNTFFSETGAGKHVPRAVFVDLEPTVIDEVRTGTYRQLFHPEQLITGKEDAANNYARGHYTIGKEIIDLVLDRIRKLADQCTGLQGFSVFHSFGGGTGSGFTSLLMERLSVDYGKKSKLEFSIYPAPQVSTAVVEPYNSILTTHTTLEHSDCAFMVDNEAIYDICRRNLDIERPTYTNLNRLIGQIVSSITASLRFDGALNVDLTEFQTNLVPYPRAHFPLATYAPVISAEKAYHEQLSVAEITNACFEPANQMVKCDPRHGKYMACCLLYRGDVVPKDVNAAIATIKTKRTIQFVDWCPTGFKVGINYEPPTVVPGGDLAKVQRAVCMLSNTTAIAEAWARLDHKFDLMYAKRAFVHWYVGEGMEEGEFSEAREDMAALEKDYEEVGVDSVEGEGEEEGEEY
Sequence of Taxol-stabilized microtubules (P02554 whole entry, chain 2 of 2, further chain): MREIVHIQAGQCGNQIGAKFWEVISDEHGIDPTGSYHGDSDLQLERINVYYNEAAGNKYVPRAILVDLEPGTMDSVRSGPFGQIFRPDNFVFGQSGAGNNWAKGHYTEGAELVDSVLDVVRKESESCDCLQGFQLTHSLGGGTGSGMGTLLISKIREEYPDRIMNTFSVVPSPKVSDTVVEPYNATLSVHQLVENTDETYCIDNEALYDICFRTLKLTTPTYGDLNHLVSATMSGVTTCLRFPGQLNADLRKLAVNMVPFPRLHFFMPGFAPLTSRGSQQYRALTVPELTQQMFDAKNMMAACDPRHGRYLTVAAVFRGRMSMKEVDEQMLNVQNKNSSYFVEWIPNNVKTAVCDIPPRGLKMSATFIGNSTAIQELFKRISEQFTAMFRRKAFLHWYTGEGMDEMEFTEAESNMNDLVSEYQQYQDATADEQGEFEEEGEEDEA

B1: GST–CPn0572^595-755 (domain or fragment, Chlamydia pneumoniae (Cpn GiD), UniProt Q9Z7Y1 595-755, looked up)
chain: VATTITPQARTASTSTTSIGTGTESTSTTSTGTGTGSVSTQSTGVGTPTTTTRSTGTSATTTTSSASTQTPQAPLPSGTRHVATISLVRNAAGRSIVLQQGGRSQSFPIPPSGTGTQNMGAQLWAAASQVASTLGQVVNQAATAGSQPSSRRSSPTSPRRK
notes: Cloned into a modified pGEX-5X-1 in which the factor Xa site is replaced by a TEV protease site; source: E. coli Rosetta (DE3), purified (glutathione agarose beads)
Work on B1 yielded a Kd of 70 nM.

— paper PMC11444262, “Direct targeting of host microtubule and actin cytoskeletons by a chlamydial pathogenic effector protein” (Journal of Cell Science, 2024)
